Here are results for one molecule from article PMC12822413, “TSHR‐Targeting Nucleic Acid Aptamer Treats Graves' Ophthalmopathy via Novel Allosteric Inhibition”.

The data set concerns the target recombinant TSHR-His (UniProt P16473 21-414). The experiment in a line: SPR; 5 mM Mg2+; kon 7.686e4 M-1s-1, koff 9.023e-4 s-1; 25 C; Flow: DPBS, 5 mM MgCl2, 4.5 g/L glucose, 0.1 mg/mL yeast tRNA, 1 mg/mL BSA, 4 C 30 min; SPR: DPBS, 5 mM Mg2+, pH 7.4, 25 C. Conditions: protein: commercial; tags: His; label: FAM (flow); biotin (pull-down); stem-loops (NUPACK predicted).

recombinant TSHR-His, sequence (P16473 21-414): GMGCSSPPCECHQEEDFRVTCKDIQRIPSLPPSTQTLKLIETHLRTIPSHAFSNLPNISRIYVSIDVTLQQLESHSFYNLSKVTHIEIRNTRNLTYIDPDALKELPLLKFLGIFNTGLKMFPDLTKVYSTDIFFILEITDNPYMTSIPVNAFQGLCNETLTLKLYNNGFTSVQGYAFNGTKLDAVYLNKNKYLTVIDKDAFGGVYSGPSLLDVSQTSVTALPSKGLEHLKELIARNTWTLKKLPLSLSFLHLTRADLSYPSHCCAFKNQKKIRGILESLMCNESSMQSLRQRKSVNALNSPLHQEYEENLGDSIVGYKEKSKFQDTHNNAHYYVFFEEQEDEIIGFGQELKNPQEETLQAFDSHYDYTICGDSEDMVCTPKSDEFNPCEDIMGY

B1: YC3 (structured_DNA)
DNA: ACCGACCGTGCTGGACTCAGATGAACAATCGATGGAAGATTGGGTCGCACCGGCCTCTTTCACTATGAGCGAGCCTGGCG
Take B1: the Kd was 11.7 nM.
